Source: patent publication US20130287781A1 (GlaxoSmithKline, published 2013)
Where two headings read alike, the source gives them in different places.

B1: H28L16 (antibody, human IgG1, kappa)
heavy: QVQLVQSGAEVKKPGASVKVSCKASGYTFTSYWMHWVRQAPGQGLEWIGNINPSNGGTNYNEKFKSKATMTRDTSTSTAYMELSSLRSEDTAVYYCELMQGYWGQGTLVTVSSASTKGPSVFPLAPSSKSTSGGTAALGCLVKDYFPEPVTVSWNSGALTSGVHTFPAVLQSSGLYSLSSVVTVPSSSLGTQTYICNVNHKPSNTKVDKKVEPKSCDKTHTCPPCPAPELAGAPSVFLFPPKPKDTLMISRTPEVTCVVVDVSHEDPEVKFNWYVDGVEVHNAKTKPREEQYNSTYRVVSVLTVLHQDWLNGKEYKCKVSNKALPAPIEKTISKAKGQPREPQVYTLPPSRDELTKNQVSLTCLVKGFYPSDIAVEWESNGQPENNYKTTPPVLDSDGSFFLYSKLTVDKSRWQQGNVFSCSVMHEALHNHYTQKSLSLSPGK
light: DIVMTQSPLSNPVTLGQPVSISCRSSKSLLYKDGKTYLNWFLQRPGQSPQLLIYLMSTRASGVPDRFSGGGSGTDFTLKISRVEAEDVGVYYCQQLVEYPLTFGQGTKLEIKRTVAAPSVFIFPPSDEQLKSGTASVVCLLNNFYPREAKVQWKVDNALQSGNSQESVTEQDSKDSTYSLSSTLTLSKADYEKHKVYACEVTHQGLSSPVTKSFNRGEC
notes: IgG1 (L235A, G237A) / kappa; CAMPATH-1H signal (1-19) left out; also called H28FL L16FL; NOGO H28L16
B2: HcLc (chimera of 2A10: murine 2A10 VH and VL with human IgG constant regions) (antibody, V domains shown)
VH: QVQLQQPGTELVKPGASVKLSCKASGYTFTSYWMHWVKQRPGQGLEWIGNINPSNGGTNYNEKFKSKATLTVDKSSSTAYMQLSSLTSEDSAVYYCELGQGYWGQGTLVTVSS
VL: DIVITQDELSNPVTSGESVSISCRSSKSLLYKDGKTYLNWFLQRPGQSPQLLIYLMSTRASGVSDRFSGSGSGTDFTLEISRVKAEDVGVYYCQQLVEYPLTFGAGTKLELKR
notes: also called chimeric antibody; chimeric form of the parental antibody

What was measured:
[1] = target: T1, Rat NOGO (A56) plus GST tag (rat); test: direct ELISA on GST-NOGO-A56 from rat, Abs490
T1 construct: also called GST-NOGO-A56 from rat

GST-human NOGO-A56 [2] = target: T2, GST-human NOGO-A56 (human); test: competition ELISA on coated GST-Nogo-A 5+6; competitor 2A10 pre-mixed, bound 2A10 detected with anti-mouse IgG-HRP
T2 construct: Expressed in E. coli BL21 from pGEX-6P1 and purified on glutathione-sepharose; the GST tag is part of the protein in the assays; also called GST-Nogo-A 5+6; GST Nogo-A 5 + 6

[3] = target: T3, peptide 6 (biotin-SGSG-TPSPVLPDIVMEAPLN) (human, N-terminal biotin); test: peptide ELISA: biotinylated 16-mer peptide on streptavidin, antibody at 5 ug/ml, kappa-chain peroxidase conjugate, Abs490
T3 peptide: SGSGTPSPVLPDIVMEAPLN
Experimental: (§1) Streptavidin at 5 μg/ml in sterile water was coated onto Nunc immunosorp plates (100 μl per well) at 37° C. overnight. The plates were rinsed 3 times with PBS containing 0.05% Tween (PBST) then blocked with 3% BSA in PBST at 4° C. overnight. The plates were washed 3 times with PBST. Peptides were then added to the wells at a concentration of approximately 10 μg/ml (diluted in 3% BSA in PBST) and incubated at room temperature for 1 hour. The plates were washed 3 times with PBST then incubated for 1 hour with anti-NOGO antibodies diluted to 5 μg/ml in 3% BSA in PBST. […] The plates were washed 3 times with PBST and then incubated with 100 μl OPD peroxidase substrate (Sigma) per well for 10 minutes. The colour reaction was stopped by the addition of 50 μl 3 molar H₂SO₄. Absorbance at 490 nm was measured using a plate reader.

[4] = target: T4, peptide 7 (biotin-SGSG-VLPDIVMEAPLNSAVP) (human, N-terminal biotin); test: as above
T4 peptide: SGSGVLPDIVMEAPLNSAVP
Experimental: as §1

[5] = target: T5, Cynomolgus monkey NOGO (A56) plus GST tag (cynomolgus monkey); test: SPR (Biacore), reverse format: antibody captured by Protein A
T5 construct: also called cynomolgus Nogo-A; GST-NOGO-A56 from cynomolgus
Text: (§2) Protein A was immobilised on the surface at about 4000RUs and anti-Nogo-A antibodies were captured at approximately 300-400RUs. […] All the runs were done in duplicates. The values show the mean and standard deviation (in brackets) of 1-3 independent runs with each run done in duplicate and each data set analysed independently prior to calculation of the mean and standard deviation.

[6] = target: T1, Rat NOGO (A56) plus GST tag; test: as above
Text: as §2

GST-human NOGO-A56 [7] = target: T2, GST-human NOGO-A56; test: direct ELISA, GST-human NOGO-A56 coated at 1.0 mcg/ml, purified antibody, OD490
Experimental: (§3) Wells were rinsed once with TBS+0.05% Tween (TBST) then incubated with 2% BSA in TBST to block non-specific binding sites at room temperature for 1 hour. Antibodies were diluted in TBST+2% BSA to 10 μg/ml and ½ dilutions made from this. Antibodies were added to wells in duplicate and incubated at room temperature for 1 hour. […] The wells were washed three times with TBST and then incubated with 100 μl OPD peroxidase substrate (Sigma) per well for 10 minutes. The colour reaction was stopped by the addition of 25 μl concentrated H₂SO₄. Optical density at 490 nm was measured using a plate reader. Background values read from wells with no antibody were subtracted.

GST-human NOGO-A56 [8] = target: T2, GST-human NOGO-A56; test: competition ELISA on coated GST-Nogo-A 5+6; competitor 2A10 pre-mixed, bound 2A10 detected with anti-mouse IgG-HRP; remark: listed apart in the source
Text: Recombinant human Nogo-A (GST-Nogo-A 5+6) was coated to the plates. […] IC50 values were derived using Robosage.

[9] = target: T6, Marmoset NOGO (A56) plus GST tag (marmoset); test: SPR (Biacore), reverse format: antibody captured by Protein A; end of the range tied to marmoset by Table 19
T6 construct: also called GST-NOGO-A56 from marmoset
Text: as §2

[10] = target: T6, Marmoset NOGO (A56) plus GST tag; test: direct ELISA on GST-NOGO-A56 from marmoset, Abs490
[11] = target: T6, Marmoset NOGO (A56) plus GST tag; test: SPR (Biacore T100), Nogo-A orthologue amine-coupled to CM5, antibody 0.125-8 nM flowed over; mean
Text: (§4) Approximately 140-180RUs of the various Nogo-A orthologues were captured to the CM5 chip by primary amine coupling. […] The values show the mean and standard deviation (in brackets) of 1-2 independent runs carried out in duplicate with each data set independently analysed prior to calculation of the mean and standard deviation.

[12] = target: T5, Cynomolgus monkey NOGO (A56) plus GST …; test: as above
Text: as §4

[13] = target: T7, Squirrel monkey NOGO (A56) plus GST tag (squirrel monkey); test: as above
T7 construct: also called GST-NOGO-A56 from squirrel monkey
Text: as §4

[14] = target: T1, Rat NOGO (A56) plus GST tag; test: as above
Text: as §4

GST-human NOGO-A56 [15] = target: T2, GST-human NOGO-A56; test: direct ELISA, GST-human NOGO-A56 coated at 1.0 mcg/ml, purified antibody, OD490; remark: listed apart in the source
Experimental: as §3

GST-human NOGO-A56 [16] = target: T2, GST-human NOGO-A56; test: SPR (Biacore), GST-human NOGO-A56 amine-coupled to CM5, antibody flowed over, 25 C
Experimental: (§5) GST-human NOGO-A56 was immobilised to a CM5 chip by primary amine coupling using the Biacore Wizard program designed for targeted immobilisation levels. The CM5 sensor surface was activated by passing a solution of 50 mM N-hydroxy-succinimide (NHS) and 200 mM N-ethyl-N′-dimethylaminopropyl carbonide (EDC). Then GST-human NOGO-A56 in sodium acetate buffer, pH5.0 or pH 4.5, was passed over the chip and immobilised. After immobilisation was complete any still activated esters were blocked by an injection of 1M ethanolamine hydrochloride, pH8.5.
The anti-NOGO mAbs were diluted down in HBS-EP (10 mM HEPES, pH 7.4, 150 mM NaCl, 3 mM EDTA, and 0.005% P-20 surfactant) for the BIAcore 3000 or HBS-EP+ (10 mM HEPES, pH 7.4, 150 mM NaCl, 3 mM EDTA, and 0.05% P-20 surfactant) in the case of the T100 and binding studies were carried out at range of defined antibody concentrations. All runs were referenced against a blanked sensor surface (one that had been activated and blocked as described earlier but had no addition of ligand). Analysis of binding was carried out using the BIAevaluation kinetic analysis software version 4.1 for the BIAcore 3000 and T100 kinetic analysis software version 1.0. […] Unless otherwise stated, the BIAcore experiments were performed at 25° C.

GST-human NOGO-A56 [17] = target: T2, GST-human NOGO-A56; test: reverse format ELISA: antibody captured on anti-human IgG, GST-Nogo-A 5+6 detected with anti-GST-HRP; the x axis is the antibody concentration
Human C1q (Sigma, C0660) = target: T8, Human C1q (Sigma, C0660) (human, UniProt P02745 23-245; P02746 28-253; P02747 29-245); test: C1q ELISA: antibody coated at 1 mcg/ml, human C1q added, anti-human C1q-HRP, Abs490
T8 construct: Bought protein
Text: ELISA plates were coated with a fixed concentration of the purified humanised and control antibodies (1 mcg/ml).

[18] = target: T7, Squirrel monkey NOGO (A56) plus GST tag; test: SPR (Biacore), reverse format: antibody captured by Protein A; end of the range tied to squirrel monkey by Table 19
Text: as §2

[19] = target: T5, Cynomolgus monkey NOGO (A56) plus GST …; test: SPR (Biacore), both formats
Text: as §4
(§6) Protein A was immobilised on the surface at about 4000RUs and anti-Nogo-A antibodies were captured at approximately 300-400RUs. […] All the runs were done in duplicates.

[20] = target: T1, Rat NOGO (A56) plus GST tag; test: SPR (Biacore), both formats
Text: as §4, §6

GST-human NOGO-A56 [21] = target: T2, GST-human NOGO-A56; test: SPR (Biacore) off-rate on NOGO chip, panel of H6FL CDR H3 variants with L13FL
GST-human NOGO-A56 [22] = target: T2, GST-human NOGO-A56; test: SPR (Biacore) off-rate ranking on GST-human NOGO-A56 chip, one experiment
Experimental: as §5
The GST-human NOGO-A56 chip was prepared as for kinetic analysis. Cell supernatants where taken directly from transient transfections of CHO-K1 cells. These were passed directly over the sensor surface and the interaction measured. A mock transfected cell supernatant was used for double referencing to remove any artefacts due to the tissue culture media. All runs were referenced against a blanked sensor surface (one that had been activated and blocked as described earlier but had no addition of ligand). Analysis of binding was carried out using the BIAevaluation kinetic analysis software version 4.1.

GST-human NOGO-A56 [23] = target: T2, GST-human NOGO-A56; test: direct ELISA, human NOGO-A (GST-human NOGO-A56) coated at 1 ug/ml, Abs490

T1 sequence (chain, as listed by the source limits assumed): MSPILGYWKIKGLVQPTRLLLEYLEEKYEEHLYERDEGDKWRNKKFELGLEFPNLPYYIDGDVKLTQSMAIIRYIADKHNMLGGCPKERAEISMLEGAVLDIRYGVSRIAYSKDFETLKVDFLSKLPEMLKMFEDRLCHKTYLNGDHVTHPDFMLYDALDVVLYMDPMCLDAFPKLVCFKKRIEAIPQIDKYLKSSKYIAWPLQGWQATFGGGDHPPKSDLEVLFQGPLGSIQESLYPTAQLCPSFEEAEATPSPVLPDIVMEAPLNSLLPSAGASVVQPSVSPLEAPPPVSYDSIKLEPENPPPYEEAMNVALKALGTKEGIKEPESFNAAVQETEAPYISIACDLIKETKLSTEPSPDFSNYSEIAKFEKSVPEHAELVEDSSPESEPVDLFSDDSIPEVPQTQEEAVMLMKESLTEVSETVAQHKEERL
T5 sequence (chain, as listed by the source limits assumed): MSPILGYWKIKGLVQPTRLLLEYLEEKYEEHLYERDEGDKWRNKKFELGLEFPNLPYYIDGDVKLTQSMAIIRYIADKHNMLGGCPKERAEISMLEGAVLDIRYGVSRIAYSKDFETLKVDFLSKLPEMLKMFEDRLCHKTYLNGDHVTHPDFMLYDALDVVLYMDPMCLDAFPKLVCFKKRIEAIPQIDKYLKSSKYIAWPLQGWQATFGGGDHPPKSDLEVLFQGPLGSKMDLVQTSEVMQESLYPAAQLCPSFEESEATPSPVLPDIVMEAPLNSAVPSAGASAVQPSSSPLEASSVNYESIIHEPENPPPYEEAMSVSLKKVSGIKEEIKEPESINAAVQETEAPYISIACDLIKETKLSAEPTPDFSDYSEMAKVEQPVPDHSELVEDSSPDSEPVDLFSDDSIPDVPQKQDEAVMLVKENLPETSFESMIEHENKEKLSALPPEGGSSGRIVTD
T6 sequence (chain, as listed by the source limits assumed): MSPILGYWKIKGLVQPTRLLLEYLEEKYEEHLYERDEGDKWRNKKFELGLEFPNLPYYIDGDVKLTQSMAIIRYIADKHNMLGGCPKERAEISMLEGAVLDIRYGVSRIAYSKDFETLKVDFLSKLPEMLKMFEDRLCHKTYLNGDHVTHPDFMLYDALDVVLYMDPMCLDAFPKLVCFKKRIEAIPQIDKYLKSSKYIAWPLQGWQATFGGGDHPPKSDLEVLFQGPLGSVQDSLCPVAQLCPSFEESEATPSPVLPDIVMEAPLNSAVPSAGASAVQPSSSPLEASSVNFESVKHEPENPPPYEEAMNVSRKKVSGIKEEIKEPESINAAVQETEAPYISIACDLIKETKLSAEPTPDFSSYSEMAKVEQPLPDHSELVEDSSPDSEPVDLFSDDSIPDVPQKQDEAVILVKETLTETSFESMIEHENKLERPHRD
T2 sequence (chain, as listed by the source limits assumed): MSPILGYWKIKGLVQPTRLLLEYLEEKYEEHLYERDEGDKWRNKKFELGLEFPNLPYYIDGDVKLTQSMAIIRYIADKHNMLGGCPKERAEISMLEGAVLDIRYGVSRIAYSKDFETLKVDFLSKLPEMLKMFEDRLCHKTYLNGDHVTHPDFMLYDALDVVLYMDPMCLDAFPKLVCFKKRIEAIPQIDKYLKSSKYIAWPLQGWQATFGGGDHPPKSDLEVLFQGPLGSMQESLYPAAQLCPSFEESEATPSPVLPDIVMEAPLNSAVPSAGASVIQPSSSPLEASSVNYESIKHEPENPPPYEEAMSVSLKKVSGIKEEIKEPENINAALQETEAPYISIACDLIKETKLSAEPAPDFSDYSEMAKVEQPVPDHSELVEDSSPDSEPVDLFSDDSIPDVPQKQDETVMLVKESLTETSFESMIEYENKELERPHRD
T7 sequence (chain, as listed by the source limits assumed): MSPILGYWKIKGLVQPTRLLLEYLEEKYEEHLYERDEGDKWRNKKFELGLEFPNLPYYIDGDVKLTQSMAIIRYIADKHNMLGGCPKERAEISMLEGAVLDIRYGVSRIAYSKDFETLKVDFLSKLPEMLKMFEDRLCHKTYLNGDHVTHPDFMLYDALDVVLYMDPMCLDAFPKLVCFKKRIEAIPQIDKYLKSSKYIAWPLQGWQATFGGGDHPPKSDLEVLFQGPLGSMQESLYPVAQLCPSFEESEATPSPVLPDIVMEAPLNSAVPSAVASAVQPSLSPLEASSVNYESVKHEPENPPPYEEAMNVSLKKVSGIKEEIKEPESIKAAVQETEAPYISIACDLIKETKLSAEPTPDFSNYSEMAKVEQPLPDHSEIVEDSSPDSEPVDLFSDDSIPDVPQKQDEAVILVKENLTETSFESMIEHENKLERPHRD
T8 sequence (P02745 23-245 limits assumed, chain 1 of 3): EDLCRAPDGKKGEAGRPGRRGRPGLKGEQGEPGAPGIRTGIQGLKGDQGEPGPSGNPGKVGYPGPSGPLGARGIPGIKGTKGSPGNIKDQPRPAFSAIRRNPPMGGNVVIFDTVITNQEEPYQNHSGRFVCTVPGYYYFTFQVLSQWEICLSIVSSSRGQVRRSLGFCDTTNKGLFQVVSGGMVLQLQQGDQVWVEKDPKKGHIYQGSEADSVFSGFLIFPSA
T8 sequence (P02746 28-253 limits assumed, chain 2 of 3): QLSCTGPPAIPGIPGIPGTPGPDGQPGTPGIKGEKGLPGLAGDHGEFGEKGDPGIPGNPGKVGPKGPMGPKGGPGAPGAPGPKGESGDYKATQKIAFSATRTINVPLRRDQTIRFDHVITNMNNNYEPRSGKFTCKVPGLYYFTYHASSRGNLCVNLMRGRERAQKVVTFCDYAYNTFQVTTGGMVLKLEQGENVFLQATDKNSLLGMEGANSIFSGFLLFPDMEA
T8 sequence (P02747 29-245 limits assumed, chain 3 of 3): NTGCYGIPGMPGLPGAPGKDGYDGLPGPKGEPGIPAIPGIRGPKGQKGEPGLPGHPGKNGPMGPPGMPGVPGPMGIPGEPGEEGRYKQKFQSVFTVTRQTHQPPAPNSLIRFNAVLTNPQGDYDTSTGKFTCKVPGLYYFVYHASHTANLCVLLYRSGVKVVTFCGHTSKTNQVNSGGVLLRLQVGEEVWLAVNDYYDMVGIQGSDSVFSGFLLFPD

Binder | EC50 (read off the curve) [1] [mg/L] | EC50 (read off the curve) (GST-human NOGO-A56 [7]) [mg/L] | EC50 (read off the curve) [10] [mg/L] | Kd [11] [nM] | Kd [12] [nM] | Kd [13] [nM] | Kd [14] [nM] | EC50 (read off the curve) (GST-human NOGO-A56 [15]) [mg/L] | Kd (GST-human NOGO-A56 [16]) [nM] | koff (GST-human NOGO-A56 [16]) [s⁻¹] | kon (GST-human NOGO-A56 [16]) [M⁻¹ s⁻¹] | EC50 (read off the curve) (GST-human NOGO-A56 [17]) [mg/L] | other results
B1 | ~0.05 | ~0.08 | ~0.04 | 0.626 | 0.67 | 0.61 | 0.33 | ~0.06 | 0.28 | 0.00195 | 6.89e+06 | ~0.06 | IC50 (read off the curve) (GST-human NOGO-A56 [2]): ~4 mg/L; binding result [3]: binds; binding result [4]: binds; fold lower affinity than for human Nogo-A [5]: 8.5 fold; fold lower affinity than for human Nogo-A [6]: ~4 fold; IC50 (read off the curve) (GST-human NOGO-A56 [8]): ~4 mg/L; fold lower affinity than for human Nogo-A [9]: 12 fold; binding result (Human C1q (Sigma, C0660)): binds; fold lower affinity than for human Nogo-A [18]: 17 fold
B2 | ~0.1 | ~0.09 | ~0.09 | 1.42 | 1.68 | 1.54 | 1.12 | ~0.06 | 0.74 | 0.00233 | 3.17e+06 | ~0.1 | fold of the affinity for human Nogo-A [19]: ≤ 8.5 fold; fold of the affinity for human Nogo-A [20]: ≤ 4 fold; koff (GST-human NOGO-A56 [21]): 0.00558 s⁻¹; koff (GST-human NOGO-A56 [22]): 0.00266 s⁻¹; EC50 (read off the curve) (GST-human NOGO-A56 [23]): ~0.04 mg/L
